Test results from patent US20180207276A1, “MODIFIED THERAPEUTIC AGENTS AND COMPOSITIONS THEREOF” (THE CALIFORNIA INSTITUTE FOR BIOMEDICAL RESEARCH, priority 2015, published 2018).
Positions of bridges follow the written chain, without caps; N, C: chain ends. Non-standard residues stand in square brackets, D forms with d. Primed or numbered codes have the meaning given here. Chains are numbered I, II in the order given. No end group written: not given here. *: point of attachment. FA2″ = lipid moiety from Br-FA2: acetamide, two PEG2-propionic acid units, Lys and octadecanedioic acid; X1 = O=C(O)CCCCCCCCCCCCCCCCC(=O)N[C@@H](CCCCNC(=O)CCOCCOCCNC(=O)CCOCCOCCNC(=O)C*)C(=O)O; X2 = O=C(O)CCCCCCCCCCCCCCCCC(=O)N[C@@H](CCCCn1cc(COCCOCCOCCOCCOCCNC(=O)C*)nn1)C(=O)O; X3 = CCCCCCCCCCCCCCCCCC(=O)N[C@@H](CCCCNC(=O)CCOCCOCCOCCOCCOCCNC(=O)C*)C(=O)O; X4 = CCCCCCCCCCCCCC(=O)N[C@@H](CCCCNC(=O)CCOCCOCCOCCOCCOCCNC(=O)C*)C(=O)O; FA183 = acetamide-PEG5-Lys-octadecanedioic acid; ALK = (PEG)5-bromo-alkyne, S-alkylating Cys; FA182 = acetamide-PEG5-Lys-myristic acid; FA186 = acetamide-PEG5-Lys-stearic acid; pGlu = O=C1CC[C@@H](C(=O)O)N1; FA155 = not defined here; FA2 = not defined here

T1: LGR7 (Homo sapiens, UniProt Q9HBX9)
T1 construct: expressed in transfected cells; host or cells: HEK293T cells stably expressing recombinant LGR7, transduced with CRE-Luc lentivirus
T1 sequence (Q9HBX9 1-757): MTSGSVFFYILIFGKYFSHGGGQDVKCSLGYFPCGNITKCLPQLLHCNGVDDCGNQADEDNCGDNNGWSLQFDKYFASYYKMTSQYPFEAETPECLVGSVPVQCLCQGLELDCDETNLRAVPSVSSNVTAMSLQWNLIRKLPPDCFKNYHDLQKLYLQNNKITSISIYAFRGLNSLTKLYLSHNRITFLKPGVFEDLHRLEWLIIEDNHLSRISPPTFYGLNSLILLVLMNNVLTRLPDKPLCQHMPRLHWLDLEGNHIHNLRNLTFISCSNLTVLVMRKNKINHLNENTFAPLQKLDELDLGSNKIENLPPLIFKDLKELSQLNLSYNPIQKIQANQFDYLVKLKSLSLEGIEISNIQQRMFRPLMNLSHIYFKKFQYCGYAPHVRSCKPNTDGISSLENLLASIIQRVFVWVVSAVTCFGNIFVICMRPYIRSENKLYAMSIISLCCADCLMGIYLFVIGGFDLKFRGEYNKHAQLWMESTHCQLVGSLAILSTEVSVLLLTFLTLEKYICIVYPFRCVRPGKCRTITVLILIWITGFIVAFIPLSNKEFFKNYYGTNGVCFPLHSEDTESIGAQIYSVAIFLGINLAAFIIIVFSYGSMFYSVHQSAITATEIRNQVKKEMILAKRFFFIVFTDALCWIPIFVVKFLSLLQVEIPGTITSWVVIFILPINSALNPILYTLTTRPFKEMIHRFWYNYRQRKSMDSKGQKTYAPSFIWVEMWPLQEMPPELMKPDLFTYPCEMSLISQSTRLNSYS

T2: LGR7 (relaxin 2 receptor), recombinant, stably expressed in HEK293T cells with a CRE-Luc reporter (UniProt Q9HBX9 1-757, limits assumed)
T2 sequence (looked up): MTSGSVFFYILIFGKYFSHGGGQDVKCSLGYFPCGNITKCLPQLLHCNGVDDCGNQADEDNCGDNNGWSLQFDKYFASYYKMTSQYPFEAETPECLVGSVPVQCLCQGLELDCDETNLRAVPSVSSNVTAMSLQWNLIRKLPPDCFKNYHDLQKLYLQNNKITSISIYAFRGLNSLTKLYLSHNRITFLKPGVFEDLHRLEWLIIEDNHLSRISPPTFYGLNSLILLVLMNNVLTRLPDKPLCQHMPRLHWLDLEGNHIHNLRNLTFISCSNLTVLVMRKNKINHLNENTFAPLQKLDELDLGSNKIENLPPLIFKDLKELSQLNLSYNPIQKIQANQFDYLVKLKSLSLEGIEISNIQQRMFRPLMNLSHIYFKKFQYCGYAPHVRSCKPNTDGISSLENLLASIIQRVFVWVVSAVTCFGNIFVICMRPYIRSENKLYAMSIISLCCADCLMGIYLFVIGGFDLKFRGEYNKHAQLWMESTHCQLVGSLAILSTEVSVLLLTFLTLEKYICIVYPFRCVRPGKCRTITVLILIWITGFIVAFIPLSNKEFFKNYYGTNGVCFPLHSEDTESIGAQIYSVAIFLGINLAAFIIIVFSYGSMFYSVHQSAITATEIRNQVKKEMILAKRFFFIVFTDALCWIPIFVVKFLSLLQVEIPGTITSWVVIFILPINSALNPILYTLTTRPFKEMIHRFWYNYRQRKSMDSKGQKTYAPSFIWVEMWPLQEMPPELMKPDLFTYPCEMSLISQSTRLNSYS


How the values were obtained:
[1] = Mouse in vivo PK study for half-life extension; set-up: species or system CD1 female mice; conditions: 0.3 mg/kg in NH4Ac buffer, plasma levels by cell-based reporter gene assay; for half-life: female, CD1, sc
Description: Lipid conjugated relaxin or other therapeutic agents were dosed in mice using sc, po, iv dosing. Plasma levels of TA were determined by LGR7 activation at different time points (e.g., i.v. PK 5 min, 0.5h, 1h, 2h 4h, 8h, 24h, 48h).

[2] = biological target: T1, LGR7; test: LGR7 CRE-Luc reporter gene assay (bioactivity of relaxin peptides); type: cell-based; conditions: HEK293T cells expressing LGR7 and CRE-Luc; for Activity, fold drop compared to relaxin: fold drop relative to relaxin; for EC50: 18 hours incubation, luciferase readout
Description: Relaxin 2 signals through leucine-rich repeat-containing GPCRs (i.e LGR7 (RFXR1)). The bioactivity of wild-type relaxin peptides was determined based on the stimulation of adenylate cyclase activity in HEK293T cells stably expressing recombinant LGR7. Stable LGR7 expressing cells were maintained in Dulbecco's modified Eagle's medium/F-12 media supplemented with 200 ng/ml Zeocin (Invitrogen). A cyclic AMP responsive element driven luciferase (CRE-Luc) reporter line was generated by lentiviral transduction of these LGR7 expressing HEK293T cells with CRE-Luc lentivirus (Qiagen) and selected with puromycine (2 μg/mL) for two weeks. A reporter gene assay was used to detect cAMP levels and LGR7 activation by relaxin.
Assay detail: HEK293T cells expressing LGR7 and CRE-Luc are seeded at a density of 5×10^3 cells per well in 50 μL of Dulbecco's modified Eagle's medium/F-12 medium containing 10% FBS in 384-well solid bottom white plates. Cells are pre-incubated at 37° C. overnight. Different concentrations of relaxin peptides (from 0.01 nM to 1000 nM) were added in triplicate, incubated for 18 hours and luciferase activity was detected by adding […], of Bright Glo (Promega). Luminescence was recorded on Envision (Perkin Elmer). EC50 is calculated after non-linear curve fitting (see FIG. 2 for relaxin H2 dose response curve).

[3] = in vivo; conditions: female, Dahl salt sensitive (DSS), rat, plasma, sc, 0.3 mg/kg
Description: To ensure accurate determination of active relaxins, plasma samples collected at intervals between 0-24 hrs were analyzed using the cell-based reporter gene assay.
Bioanalysis: Serum samples were diluted (1:100) in 5 point serial dilutions (1:3) and measured RXFP1 luciferase reporter activity following assay protocol. Injected peptide were used as a standard to get standard curve and obtained parameters for Bottom, Top, EC50, Hill Slope. Obtained activity values (RLU) were selected (in the linear range of the standard curve) were used to calculate the concentrations in plasma (nmol/L) using equation from standard curve (Y=Bottom+(Top-Bottom)/(1+10̂((Log IC50−X)*Hill Slope))

[4] = biological target: T2, LGR7 (relaxin 2 receptor), recombinant, …; test: cell-based or functional assay

| Molecule | half-life [1] [h] | Activity, fold drop compared to relaxin [2] | Activity, fold drop compared to relaxin [4] [fold] | LGR7 EC50 (pM), CRE-Luc reporter in HEK293T cells expressing LGR7 [4] [pM] | further results |
| --- | --- | --- | --- | --- | --- |
| CC[C@H](C)[C@@H]1NC(=O)[C@H](C)NC(=O)[C@H]([C@@H](C)CC)NC(=O)[C@H](CCC(N)=O)NC(=O)[C@H](C)NC(=O)[C@H](CCCNC(=N)N)NC(=O)[C@H](C(C)C)NC(=O)[C@H](CC(C)C)NC(=O)[C@H](CCC(=O)O)NC(=O)[C@H](CCCNC(=N)N)NC(=O)CNC(=O)[C@@H](NC(=O)[C@H](CC(C)C)NC(=O)[C@H](CCCCN)NC(=O)[C@@H](NC(=O)[C@@H](NC(=O)[C@H](CCC(=O)O)NC(=O)[C@H](CCC(=O)O)NC(=O)[C@H](CCSC)NC(=O)[C@H](Cc2c[nH]c3ccccc23)NC(=O)[C@H](CO)NC(=O)[C@H](C)N)C(C)C)[C@@H](C)CC)CSSC[C@@H]2NC(=O)[C@@H](NC(=O)[C@H](CCCCN)NC(=O)[C@H](CC(N)=O)NC(=O)[C@H](C)NC(=O)[C@H](CC(C)C)NC(=O)[C@H](C)NC(=O)[C@H](CO)NC(=O)[C@H](Cc3ccc(O)cc3)NC(=O)[C@H](CSCC(=O)NCCOCCOCCOCCOCCOCCOCCOCCOCCC(=O)NCCCC[C@H](NC(=O)CCCCCCCCCCCCCCCCC(=O)O)C(=O)O)NC(=O)[C@@H](N)CCC(N)=O)CSSC[C@H](NC(=O)CNC(=O)[C@H](C(C)C)NC(=O)[C@H](Cc3c[nH]cn3)NC2=O)C(=O)N[C@@H]([C@@H](C)O)C(=O)N[C@@H](CCCCN)C(=O)N[C@@H](CCCNC(=N)N)C(=O)N[C@@H](CO)C(=O)N[C@@H](CC(C)C)C(=O)N[C@@H](C)C(=O)N[C@@H](CCCNC(=N)N)C(=O)N[C@@H](Cc2ccccc2)C(=O)N[C@H](C(=O)O)CSSC[C@@H](C(=O)NCC(=O)N[C@@H](CCSC)C(=O)N[C@@H](CO)C(=O)N[C@H](C(=O)N[C@@H](Cc2c[nH]c3ccccc23)C(=O)N[C@@H](CO)C(=O)O)[C@@H](C)O)NC1=O [compound 8] | 9.5 | 8 |  |  |  |
| I: ASWMEEVIKLCGRELVRAQIAICGMSTWS / II: QC(X2)YSALANKCCHVGCTKRSLARFC (disulfide I:11-II:11, I:23-II:24, II:10-II:15) [compound 3] | 6 | 12 |  |  | EC50 [2]: 0.21 nM |
| I: ASWMEEVIKLCGRELVRAQIAICGMSTWS / II: QC(X3)YSALANKCCHVGCTKRSLARFC (disulfide I:11-II:11, I:23-II:24, II:10-II:15) [compound 9] | 3.4 | 10 |  |  |  |
| I: ASWMEEVIKLCGRELVRAQIAICGMSTWS / II: QC(X4)YSALANKCCHVGCTKRSLARFC (disulfide I:11-II:11, I:23-II:24, II:10-II:15) [compound 7] | 8 | 2 |  |  |  |
| I: ASWMEEVIKLCGRELVRAQIAICGMSTWS / II: QLYSALANKCCHC(X1)GCTKRSLARFC (disulfide I:11-II:11, I:23-II:24, II:10-II:15) [compound 2] | 8 | 15 |  |  |  |
| I: H-ASWMEEVIKLCGRELVRAQIAICGMSTWS / II: H-QC(X1)YSALANKCCHVGCTKRSLARFC (disulfide I:11-II:11, I:23-II:24, II:10-II:15) [compound 1] | 8 | 12 |  |  | EC50 [2]: 0.21 nM |
| I: H-ASWMEEVIKLCGRELVRAQIAICGMSTWS / II: [pGlu]C(X1)YSALANKCCHVGCTKRSLARFC (disulfide I:11-II:11, I:23-II:24, II:10-II:15) [compound 5] |  | 12 |  |  | half-life [3]: 16 h |
| Relaxin-B:D1A (chain 1 ASWMEEVIKLCGRELVRAQIAICGMSTWS; chain 2 QLYSALANKCCHVGCTKRSLARFC) [unconjugated relaxin analog with D1A substitution in the B chain] |  |  |  |  | Half-life (mouse, sc) [1]: 0.8 h |
| Relaxin-wt [reference compound] |  |  |  |  | Half-life (mouse, sc) [1]: 0.7 h |
| Relaxin-B:D1A-A:Q1-L2C-FA2 (ligand, ends and bridges not checked) chain 1: ASWMEEVIKLCGRELVRAQIAICGMSTWS chain 2: QC(FA2″)YSALANKCCHVGCTKRSLARFC |  |  | 12 | 210 |  |
| Relaxin-B:D1A-A:pQ1-L2C-FA2 (ligand, pyroglutamate (pQ) at position 1; Cys 2 S-alkylated with FA2 (from Br-FA2, Example 6)) chain 1: ASWMEEVIKLCGRELVRAQIAICGMSTWS chain 2: XCYSALANKCCHVGCTKRSLARFC |  |  | 12 | 350 |  |
| Relaxin-B:D1A-A:Q1-L2C-FA182 (ligand, ends and bridges not checked) chain 1: ASWMEEVIKLCGRELVRAQIAICGMSTWS chain 2: QC(FA182)YSALANKCCHVGCTKRSLARFC |  |  | 2 | 51 |  |
| Relaxin-B:D1A-A:Q1-L2C-FA183 (ligand, ends and bridges not checked) chain 1: ASWMEEVIKLCGRELVRAQIAICGMSTWS chain 2: QC(FA183)YSALANKCCHVGCTKRSLARFC |  |  | 8 | 174 |  |
| Relaxin-B:D1A-A:Q1-L2C-FA186 (ligand, ends and bridges not checked) chain 1: ASWMEEVIKLCGRELVRAQIAICGMSTWS chain 2: QC(FA186)YSALANKCCHVGCTKRSLARFC |  |  | 10 | 235 |  |
| Relaxin-B:D1A (ligand, ends and bridges not checked; cysteine pairing not given here) chain 1: ASWMEEVIKLCGRELVRAQIAICGMSTWS chain 2: QLYSALANKCCHVGCTKRSLARFC |  |  | 1 | 45 |  |
| Relaxin-wt (ligand, ends and bridges not checked; cysteine pairing not given here) chain 1: DSWMEEVIKLCGRELVRAQIAICGMSTWS chain 2: QLYSALANKCCHVGCTKRSLARFC |  |  | 1 | ~40 |  |
| Relaxin-B:D1A-A:Q1:V13C-FA2 (ligand, ends and bridges not checked) chain 1: ASWMEEVIKLCGRELVRAQIAICGMSTWS chain 2: QLYSALANKCCHC(FA2)GCTKRSLARFC |  |  | 15 | 250 |  |
| Relaxin-B:D1A-A:Q1-L2C-FA155 (ligand, ends and bridges not checked) chain 1: ASWMEEVIKLCGRELVRAQIAICGMSTWS chain 2: QC(FA155)YSALANKCCHVGCTKRSLARFC |  |  | 12 | 210 |  |
| Relaxin-B:D1A-A:Q1-L2C-ALK (ligand, ends and bridges not checked) chain 1: ASWMEEVIKLCGRELVRAQIAICGMSTWS chain 2: QC(ALK)YSALANKCCHVGCTKRSLARFC |  |  | 1 | 17 to 50 |  |
